# In the Immune Epitope Database (IEDB):
# Legend:
# HLA-A*26:01 = test: IEDB peptide-MHC binding, purified MHC/competitive/radioactivity; filed as Kd, often an IC50 or EC50 that approximates it; ≥ and ≤ were set here for values at or beyond the usual limits of such assays
# HLA-A*24:02 = test: as above
# HLA-A*29:02 = test: as above
# HLA-A*30:02 = test: as above
# HLA-A*23:01 = test: as above
# HLA-A*01:01 [1] = test: as above
# HLA-B*08:01 = test: as above
# HLA-A*32:01 = test: as above
# HLA-B*44:03 = test: as above
# HLA-B*44:02 = test: as above
# HLA-B*40:01 = test: as above
# HLA-B*15:01 = test: IEDB peptide-MHC binding, purified MHC/direct/fluorescence; filed as Kd, often an IC50 or EC50 that approximates it; ≥ and ≤ were set here for values at or beyond the usual limits of such assays; conditions: source organism: SARS-CoV1
# HLA-A*03:01 = test: as above; conditions: source organism: SARS-CoV1
# HLA-B*58:01 = test: as above; conditions: source organism: SARS-CoV1
# HLA-A*01:01 [2] = test: as above; conditions: source organism: SARS-CoV1
# HLA-B*51:01 = test: IEDB peptide-MHC binding, purified MHC/competitive/radioactivity; filed as Kd, often an IC50 or EC50 that approximates it; ≥ and ≤ were set here for values at or beyond the usual limits of such assays; conditions: source organism: Dengue virus 1 Brazil/97-11/1997
# HLA-A*30:01 = test: as above
# [3] = source organism: Mammarenavirus guanaritoense
# [4] = source organism: Dengue virus 1 Brazil/97-11/1997
# [5] = source organism: Mammarenavirus choriomeningitidis
# [6] = source organism: Dengue virus 4 Philippines/H241/1956
# [7] = source organism: Dengue virus 2 Jamaica/1409/1983
# [8] = source organism: SARS coronavirus Tor2
# [9] = source organism: Vaccinia virus Copenhagen
# [10] = source organism: Vaccinia virus WR
# [11] = source organism: Mammarenavirus lassaense
# [12] = source organism: Mammarenavirus machupoense
sequence,measurement,setting,value
EDAQPGLLSY,Kd,HLA-A*26:01; [3],≥ 25.8 µM
same,Kd,HLA-A*24:02; [3],≥ 70.3 µM
same,Kd,HLA-A*29:02; [3],8210 nM
same,Kd,HLA-A*30:02; [3],17.6 µM
same,Kd,HLA-A*23:01; [3],≥ 70 µM
same,Kd,HLA-A*01:01 [1]; [3],≥ 70.4 µM
QMQRKHGGML,Kd,HLA-B*08:01; [4],436 nM
EGFMRKQKY,Kd,HLA-A*26:01; [5],≥ 77.9 µM
same,Kd,HLA-A*24:02; [5],≥ 77.5 µM
same,Kd,HLA-A*29:02; [5],≥ 78900 nM
same,Kd,HLA-A*30:02; [5],≥ 53.5 µM
same,Kd,HLA-A*23:01; [5],≥ 56.1 µM
same,Kd,HLA-A*01:01 [1]; [5],≥ 49.6 µM
KITGNLVQI,Kd,HLA-A*32:01; [6],2710 nM
SEMIIPKNFA,Kd,HLA-B*44:03; [7],25 nM
same,Kd,HLA-B*44:02; [7],12 nM
same,Kd,HLA-B*40:01; [7],8.44 µM
CADGTRHTY,Kd,HLA-A*26:01; [8],2.78 µM
same,Kd,HLA-A*24:02; [8],≥ 37.7 µM
same,Kd,HLA-A*29:02; [8],963 nM
same,Kd,HLA-A*30:02; [8],0.0398 µM
same,Kd,HLA-A*23:01; [8],≥ 67.6 µM
same,Kd,HLA-B*15:01,1260 nM
same,Kd,HLA-A*03:01,9.67 µM
same,Kd,HLA-B*58:01,1210 nM
same,Kd,HLA-A*01:01 [2],438 nM
GSIIQFPNTY,Kd,HLA-A*26:01; [8],1.88 µM
same,Kd,HLA-A*24:02; [8],≥ 70.3 µM
same,Kd,HLA-A*29:02; [8],462 nM
same,Kd,HLA-A*30:02; [8],0.545 µM
same,Kd,HLA-A*23:01; [8],≥ 70 µM
same,Kd,HLA-A*01:01 [1]; [8],1.05 µM
IAFLRFLAI,Kd,HLA-B*08:01; [4],1.26 nM
same,Kd,HLA-B*51:01,9.53 nM
RQIFIHYSV,Kd,HLA-A*32:01; [9],1.04 nM
KKMIRPQPM,Kd,HLA-B*08:01; [4],188 nM
QEVPFCSHHF,Kd,HLA-B*44:03; [6],180 nM
same,Kd,HLA-B*44:02; [6],12.2 nM
same,Kd,HLA-B*40:01; [6],4.87 µM
HMLEFLYSF,Kd,HLA-A*32:01; [10],0.296 nM
FQPHQLWTTL,Kd,HLA-A*32:01; [4],761 nM
AFIDTIKSL,Kd,HLA-A*26:01; [8],≥ 34.2 µM
same,Kd,HLA-A*24:02; [8],10.2 µM
same,Kd,HLA-A*29:02; [8],2950 nM
same,Kd,HLA-A*30:02; [8],13.6 µM
same,Kd,HLA-A*23:01; [8],5.01 µM
same,Kd,HLA-A*01:01 [1]; [8],≥ 78.1 µM
ILLNNPNLF,Kd,HLA-A*24:02; [3],0.793 µM
same,Kd,HLA-A*29:02; [3],46.7 nM
same,Kd,HLA-A*23:01; [3],0.423 µM
GYTMHANYIF,Kd,HLA-A*26:01; [8],≥ 41.1 µM
same,Kd,HLA-A*24:02; [8],0.0111 µM
same,Kd,HLA-A*29:02; [8],407 nM
same,Kd,HLA-A*30:02; [8],7.59 µM
same,Kd,HLA-A*23:01; [8],0.0164 µM
same,Kd,HLA-A*01:01 [1]; [8],≥ 44.1 µM
MMRNRTKPI,Kd,HLA-B*08:01; [9],1.49 nM
FFTYLCGFI,Kd,HLA-A*26:01; [8],≥ 77.9 µM
same,Kd,HLA-A*24:02; [8],18.8 µM
same,Kd,HLA-A*29:02; [8],822 nM
same,Kd,HLA-A*30:02; [8],≥ 78.9 µM
same,Kd,HLA-A*23:01; [8],13.7 µM
same,Kd,HLA-A*01:01 [1]; [8],≥ 43.1 µM
AYSNRNRFL,Kd,HLA-A*26:01; [8],≥ 77.9 µM
same,Kd,HLA-A*24:02; [8],0.0922 µM
same,Kd,HLA-A*29:02; [8],6640 nM
same,Kd,HLA-A*30:02; [8],≥ 54.7 µM
same,Kd,HLA-A*23:01; [8],0.658 µM
same,Kd,HLA-A*01:01 [1]; [8],≥ 78.1 µM
SSSPTILDNY,Kd,HLA-A*32:01; [3],≥ 69900 nM
same,Kd,HLA-A*26:01; [3],17.8 µM
same,Kd,HLA-A*29:02; [3],99 nM
same,Kd,HLA-A*30:02; [3],0.0425 µM
same,Kd,HLA-A*30:01; [3],≥ 21000 nM
same,Kd,HLA-A*01:01 [1]; [3],0.0226 µM
SPKERLPYI,Kd,HLA-B*08:01; [10],1040 nM
MYASALVLL,Kd,HLA-A*26:01; [8],4.62 µM
same,Kd,HLA-A*24:02; [8],≥ 65.3 µM
same,Kd,HLA-A*29:02; [8],≥ 22500 nM
same,Kd,HLA-A*30:02; [8],≥ 33.5 µM
same,Kd,HLA-A*23:01; [8],≥ 46.4 µM
same,Kd,HLA-A*01:01 [1]; [8],≥ 66 µM
ISKVRSNAA,Kd,HLA-B*08:01; [6],7.31 nM
same,Kd,HLA-A*30:01; [6],712 nM
GTINRILVI,Kd,HLA-A*32:01; [10],14.5 nM
ESDGKPQKV,Kd,HLA-A*26:01; [11],≥ 77.9 µM
same,Kd,HLA-A*24:02; [11],≥ 77.5 µM
same,Kd,HLA-A*29:02; [11],≥ 78900 nM
same,Kd,HLA-A*30:02; [11],≥ 76.9 µM
same,Kd,HLA-A*23:01; [11],≥ 77.7 µM
same,Kd,HLA-A*01:01 [1]; [11],0.188 µM
KSYAQMWQLM,Kd,HLA-A*32:01; [4],89.9 nM
CGDPSSLDY,Kd,HLA-A*26:01; [12],≥ 74.6 µM
same,Kd,HLA-A*24:02; [12],≥ 77.5 µM
same,Kd,HLA-A*29:02; [12],4730 nM
same,Kd,HLA-A*30:02; [12],0.87 µM
same,Kd,HLA-A*23:01; [12],≥ 77.7 µM
same,Kd,HLA-A*01:01 [1]; [12],0.00678 µM
YSIFLIFSI,Kd,HLA-A*32:01; [9],951 nM
KTWGKAKML,Kd,HLA-A*32:01; [7],39.2 nM
NYLRKRVMF,Kd,HLA-A*26:01; [8],≥ 60.2 µM
same,Kd,HLA-A*24:02; [8],18 µM
same,Kd,HLA-A*29:02; [8],3270 nM
same,Kd,HLA-A*30:02; [8],9.15 µM
same,Kd,HLA-A*23:01; [8],11.2 µM
same,Kd,HLA-A*01:01 [1]; [8],≥ 78.1 µM
